Laboratory results from US20260151521A1.

Key:
[1] = target: human PD-L1 (full-length, expressed on cells) (human) (UniProt Q9NZQ7); assay: flow cytometry, dose titration of staining on untreated LOX-IMVI cells
[2] = target: human PD-L1 (full-length, expressed on cells) (human) (UniProt Q9NZQ7); assay: flow cytometry, dose titration of staining on untreated MC38-cOVA/eGFP-mPD-L1-/-hPD-L1Tg cells
[3] = target: human PD-L1 (full-length, expressed on cells) (human) (UniProt Q9NZQ7); assay: flow cytometry, dose titration of staining on LOX-IMVI cells treated overnight with 100 ng/mL hIFNγ
[4] = target: human PD-L1 (full-length, expressed on cells) (human) (UniProt Q9NZQ7); assay: flow cytometry, dose titration on LOX-IMVI and MC38-cOVA/eGFP-mPD-L1-/-hPD-L1Tg cells with or without IFNgamma
[5] = target: human PD-L1 (full-length, expressed on cells) (human) (UniProt Q9NZQ7); assay: flow cytometry, ex vivo LOX-IMVI tumor cells (Tumor 1) ~3 weeks post implantation in nude mice, antibody at 20 ug/mL
[6] = target: human PD-L1 (full-length, expressed on cells) (human) (UniProt Q9NZQ7); assay: flow cytometry, ex vivo LOX-IMVI tumor cells (Tumor 2) ~3 weeks post implantation in nude mice, antibody at 20 ug/mL
[7] = target: human PD-L1 (full-length, expressed on cells) (human) (UniProt Q9NZQ7); assay: flow cytometry, dose titration of staining on MC38-cOVA/eGFP-mPD-L1-/-hPD-L1Tg cells treated overnight with 100 ng/mL mIFNγ
[8] = target: human PD-L1 (full-length, expressed on cells) (human) (UniProt Q9NZQ7); assay: flow cytometry, ex vivo MC38-cOVA/eGFP-mPD-L1-/-hPD-L1Tg tumor cells (Tumor 1) ~3 weeks post implantation in nude mice, antibody at 20 ug/mL
[9] = target: human PD-L1 (full-length, expressed on cells) (human) (UniProt Q9NZQ7); assay: flow cytometry, ex vivo MC38-cOVA/eGFP-mPD-L1-/-hPD-L1Tg tumor cells (Tumor 2) ~3 weeks post implantation in nude mice, antibody at 20 ug/mL
[10] = target: human PD-L1 (full-length, expressed on cells) (human) (UniProt Q9NZQ7); assay: immunoreactivity on MC38/mPD-L1-/-/hPD-L1 cells
[11] = target: human PD-L1 (full-length, expressed on cells) (human) (UniProt Q9NZQ7); assay: immunoreactivity, Study 1: MC38-cOVA/eGFP-mPD-L1-/-hPD-L1Tg cells, cell-bound activity against standards
[12] = target: human PD-L1 (full-length, expressed on cells) (human) (UniProt Q9NZQ7); assay: immunoreactivity, Study 3: MC38-cOVA/eGFP-mPD-L1-/-hPD-L1Tg cells, cell-bound activity against standards
[13] = target: human PD-L1 (full-length, expressed on cells) (human) (UniProt Q9NZQ7); assay: immunoreactivity, Study 3: LOX-IMVI cells (endogenous human PD-L1), cell-bound activity against standards
[14] = target: human PD-L1 (full-length, expressed on cells) (human) (UniProt Q9NZQ7); assay: immunoreactivity, Study 1: 20 ng 89Zr antibody on 15x10^6 MC38-cOVA/eGFP-mPD-L1-/-hPD-L1Tg cells, gamma counter
[15] = target: human PD-L1 (full-length, expressed on cells) (human) (UniProt Q9NZQ7); assay: immunoreactivity, Study 3: 20 ng 89Zr antibody on 15x10^6 MC38-cOVA/eGFP-mPD-L1-/-hPD-L1Tg cells, gamma counter
[16] = target: human PD-L1 (full-length, expressed on cells) (human) (UniProt Q9NZQ7); assay: immunoreactivity, Study 3: 20 ng 89Zr antibody on 30x10^6 LOX-IMVI cells (endogenous human PD-L1), gamma counter

UniProt Q9NZQ7, sequence (Q9NZQ7 19-290): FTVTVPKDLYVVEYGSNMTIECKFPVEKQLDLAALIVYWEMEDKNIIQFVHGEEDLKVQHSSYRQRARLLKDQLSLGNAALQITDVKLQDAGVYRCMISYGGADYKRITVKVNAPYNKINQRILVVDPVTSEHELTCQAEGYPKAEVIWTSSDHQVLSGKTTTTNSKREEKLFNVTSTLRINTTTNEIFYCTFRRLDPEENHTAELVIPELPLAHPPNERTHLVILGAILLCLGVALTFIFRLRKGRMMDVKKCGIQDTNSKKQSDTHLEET

EC50 (read off the curve) [1]	EC50 (read off the curve) [2]	EC50 (read off the curve) [3]	antibody concentration at which median fluorescence intensity reached the plateau [4]	Mean fluorescence intensity [5]	Mean fluorescence intensity [6]	EC50 (read off the curve) [7]	Mean fluorescence intensity [8]	Mean fluorescence intensity [9]	Immunoreactivity [10]	Percent IR (immunoreactivity) [11]	Percent IR (immunoreactivity) [12]	Percent IR (immunoreactivity) [13]	cell pellet activity [14]	cell pellet activity [15]	cell pellet activity [16]	Substance
20 nM	30 nM	20 nM	150 nM	8480	12100	30 nM	49600	51400								fluorochrome directly conjugated anti-human PD-L1 antibody (eBioscience, clone MIH1)
									8.8%	0.5%	0.7%	0.7%	29.6	68	65.4	89Zr labeled DFO-conjugated isotype control antibody
